Patent US10792857B2, “Polymeric microneedles and rapid additive manufacturing of the same” (The University of North Carolina at Chapel Hill, priority 2015, dated 2020)

What was measured:
[1] = Insulin release from CLIP fabricated PAA cylinders dissolved in water (sandwich ELISA); assay type: physicochemical
From the text: Insulin (Sigma) was incorporated into test parts with identical dimensions described in FIG. 22A using CLIP and a resin containing 87.1 wt % acrylic acid monomer, 2.52 wt % DPO photo initiator, 10.4 wt % acetic acid, 0.17 wt % human insulin. Resin of an identical composition, excluding the […] insulin, was used as a negative control for insulin incorporation and release. Parts were fabricated using continuous printing on the CLIP7 apparatus (Carbon 3D) with a drawspeed of 100 mm/hr and 14.5 mW/cm2 light intensity. CLIP fabricated PAA parts were dissolved in 2 mL of water and the solution was then centrifuged at 20,000×g for 10 minutes to remove any insoluble material and insulin release was quantified using an sandwich ELIS A method (3A6 anti-insulin coating antibody, 8E2-HRP detection antibody from AbCam) combined with and an insulin standard curve. Insulin was readily detected in dissolved CLIP fabricated PAA cylinders made with insulin containing resin (FIG. 25) with an average of 0.5 unit/mL insulin (1 unit/cylinder), which was close to the theoretical insulin loading levels of 1 unit per cylinder based on PAA cylinder dry weight (20-22 mg). No insulin was detected in the supernatant of dissolved vehicle control cylinders (FIG. 25), validating the specificity of the ELISA-based insulin assay. […]

[2] = value used for insulin loading calculation; cited from earlier work
[3] = OVA-647 release from CLIP fabricated PAA cylinders dissolved in water (fluorescence plate reader); assay type: physicochemical; details: PAA cylinder from resin with 0.01 wt % OVA-647, dissolved in 2 mL of water, versus vehicle control cylinders
From the text: Fluorescently labeled (Alexa Fluor® 647) model vaccine antigen ovalbumin (referred to as OVA-647) was incorporated into a PAA matrix using CLIP and a resin containing […] (Sigma), 2.3 wt % DPO photo initiator (Sigma), […], 0.01 wt % OVA-647 (Invitrogen). Resin of an identical composition, excluding the 0.01 wt % OVA-647, was used as a negative control for OVA-647 incorporation. The shape of the CLIP fabricated test parts was cylindrical with 3 mm diameter×3 mm height, containing a hollowed out center 1.5 mm diameter (FIG. 22A and FIG. 22B). Parts were fabricated using continuous printing on the CLIP7 apparatus (Carbon 3D) with a drawspeed of 100 mm/hr and 8.4 mW/cm2 light intensity. OVA-647 incorporation into CLIP fabricated PAA parts was confirmed using microscopy (FIG. 22C). The OVA-647 and vehicle control PAA cylinders were dissolved in 2 mL of water and the solution was then centrifuged at 20,000×g for 10 minutes to remove any insoluble material and OVA-647 release was measured using a fluorescence plate reader.
Referring to FIG. 23, vehicle PAA cylinders (containing 8.97 wt % water) or OVA-647 resin ([…] in water) were tested. Each bar represents an independent cylinder dissolved in 2 mL of water and the supernatant was measured for OVA-647 fluorescence. Values were normalized to a standard curve of soluble OVA-647. […]

Molecule	insulin release per cylinder ([1]; PAA cylinder dissolved in 2 mL of water) [unit/cylinder]	insulin release, average concentration in dissolved cylinder solution ([1]; PAA cylinder from resin with 0.17 wt % human insulin, dissolved in 2 mL of water) [unit/mL]	max solubility [2] [µg/mL]	OVA-647 release (fluorescence in supernatant) [3]
Insulin: Human insulin (Sigma) incorporated into CLIP fabricated PAA cylinders	1	0.5	10000	
OVA-647: Fluorescently labeled (Alexa Fluor 647) model vaccine antigen ovalbumin, incorporated into PAA cylinders (protein, UniProt P01012 2-386, looked up, Alexa Fluor 647 label, Fluorescently labeled (Alexa Fluor 647) model vaccine antigen ovalbumin, incorporated into PAA cylinders) Ovalbumin: GSIGAASMEFCFDVFKELKVHHANENIFYCPIAIMSALAMVYLGAKDSTRTQINKVVRFDKLPGFGDSIEAQCGTSVNVHSSLRDILNQITKPNDVYSFSLASRLYAEERYPILPEYLQCVKELYRGGLEPINFQTAADQARELINSWVESQTNGIIRNVLQPSSVDSQTAMVLVNAIVFKGLWEKAFKDEDTQAMPFRVTEQESKPVQMMYQIGLFRVASMASEKMKILELPFASGTMSMLVLLPDEVSGLEQLESIINFEKLTEWTSSNVMEERKIKVYLPRMKMEEKYNLTSVLMAMGITDVFSSSANLSGISSAESLKISQAVHAAHAEINEAGREVVGSAEAGVDAASVSEEFRADHPFLFCIKHIATNAVLFFGRCVSP				readily detected above background florescence levels
